Our source for the percent of transmitting adults (thrips given an acquisition access period on GN-S mixed with purified TSWV) and proportion of thrips infected with virus (real time RT-PCR, insects pre-exposed to GN-S then fed on TSWV-infected plant material) values is patent US20080300210A1.

This assay deals with cell receptor(s) in the thrips midgut (Frankliniella occidentalis). Kind of assay: cell-based or functional assay.

In turn, “GN-S, soluble version of the Tomato spotted wilt virus (TSWV) GN envelope/membrane glycoprotein (from UniProt P36291 35-309)” came in with a percent of transmitting adults (thrips given an acquisition access period on GN-S mixed with purified TSWV) of 8 fold and a proportion of thrips infected with virus (real time RT-PCR, insects pre-exposed to GN-S then fed on TSWV-infected plant material) of 3 fold.
